B1: H1H20636D (bispecific antibody, V domains shown)
VH 1: QLQLQESGPGLVKPSETLSLTCTVSGGSISSSSYYWVWIRQPPGKGLEWIGNIYFSGSTYYNPSLKSRVTITVDTSKNQFSLKMTSVTAADTAVYYCARPFYGSRGDYYYGMDVWGQGTTVTVSS
VH 2: EIVLTQSPGTLSLSPGERATLSCRASQNVRSGYLAWYQQKPGQAPRLLIYGTSTRVTGIPDRFSGFGSGTDFTLTISRLEPEDFAVYYCQQYGNSPLFTFGGGTKVEIK
VL: not shown
notes: also called anti-IsdB x anti-C1q bispecific antibody
B2: H1H20645D (bispecific antibody, V domains shown)
VH 1: B1 VH 1
VH 2: EVQLVQSGPEVKKPGESLKIACKASGYSFTSYWIGWVRQMPGKGLEWMGIIFPADSDTRYSPSFQGQVTISADKSITTAYLQWRSLQASDTAKYYCVRHVRWSGENWGQGTLVTVSS
VL: not shown
notes: as for B1
B3: H1H20641D (bispecific antibody, V domains shown)
VH 1: B1 VH 1
VH 2: QVQLVESGGGVVQPGRSLRLSCAASGFTFSNYGMHWVRQAPGKGLEWLAVIYYDGIKRYYGDSVQGRFIISRDNSKNTLYLQMNSLRDEDTAVYYCARAFSAAGPYNYYYAMDVWGQGTTVTVSS
VL: not shown
notes: as for B1
B4: H1H20637D (bispecific antibody, V domains shown)
VH 1: B1 VH 1
VH 2: EIVMTQSPATLSVSPGERATLSCTASQTINSNLAWYQQRPGQAPRLLIYGASTRATGTPARFRGSGSGTEFTLTISSLLSEDFAVYYCQNYNNWPPGGPRTFGPGTKVDIK
VL: not shown
notes: as for B1
B5: H1H20638D (bispecific antibody, V domains shown)
VH 1: B1 VH 1
VH 2: DIQMTQSPSSLSASIGDRVTITCRTSQDINNYLAWYQQKPGKVPKLLIFSASTLQSGVPSRFSGSGFGTDFTFIISSLQPEDVATYFCQKYDSGRGLSFGGGTKVEIK
VL: not shown
notes: as for B1

What was measured:
[1] = molecular target: T1, native human complement component C1q protein purified from human serum (Quidel) (human, UniProt P02745 23-245; P02746 28-253; P02747 29-245); test: cell-based or functional assay
[2] = molecular target: T1, native human complement component C1q …; test: cell-based or functional assay; remark: listed apart in the source
[3] = molecular target: T2, IsdB expressed on the surface of S. aureus Wood 46 (Staphylococcus aureus); test: ELISA on plate-coated S. aureus Wood 46
T2 construct: whole, on cells
Experimental: Briefly, S. aureus Wood 46 was grown in RPMI overnight, washed in PBS and adjusted to an OD₆₀₀ of 0.25. MaxiSorp 96 well microtiter plates were coated overnight with 100 μl of S. aureus culture per well. Plates were washed and blocked with 3% BSA. […] Anti-human HRP conjugated secondary antibody was added to washed plates. Luminescence reagents (SuperSignal Pico) were then added to the wells and signal was detected in a plate reader (Victor X3 plate reader, Perkin Elmer) immediately. Luminescence values were analyzed by a four-parameter logistic equation over a 7-point response curve (GraphPad Prism) to determine the binding EC₅₀, of the antibodies.

[4] = molecular target: T1, native human complement component C1q …; test: SPR Biacore, captured Ab, hC1q analyte, 25C
[5] = molecular target: T1, native human complement component C1q …; test: SPR Biacore, captured Ab, hC1q analyte, 37C
[6] = molecular target: T3, Recombinant bacterial IsdB expressed with a hexahistidine tag (IsdB-6xHis; REGN2655) (Staphylococcus aureus, UniProt A6QG30 42-613); test: SPR Biacore, captured Ab, IsdB-6xHis analyte, 25C
[7] = molecular target: T3, Recombinant bacterial IsdB expressed …; test: SPR Biacore, captured Ab, IsdB-6xHis analyte, 37C
[8] = molecular target: T1, native human complement component C1q …; test: competition ELISA, 6 nM biot-hC1q, competitor plate-coated hIgM
[9] = molecular target: T1, native human complement component C1q …; test: competition ELISA, 6 nM biot-hC1q, competitor plate-coated hIgG2-k
[10] = molecular target: T1, native human complement component C1q …; test: competition ELISA, 30 pM biot-hC1q, competitor plate-coated hIgG1-k
[11] = molecular target: T1, native human complement component C1q …; test: competition ELISA, 30 pM biot-hC1q, competitor plate-coated hIgG3-k
[12] = molecular target: T1, native human complement component C1q …; test: cell-based or functional assay; remark: listed apart in the source

T2 sequence (Q2FZF0 41-613): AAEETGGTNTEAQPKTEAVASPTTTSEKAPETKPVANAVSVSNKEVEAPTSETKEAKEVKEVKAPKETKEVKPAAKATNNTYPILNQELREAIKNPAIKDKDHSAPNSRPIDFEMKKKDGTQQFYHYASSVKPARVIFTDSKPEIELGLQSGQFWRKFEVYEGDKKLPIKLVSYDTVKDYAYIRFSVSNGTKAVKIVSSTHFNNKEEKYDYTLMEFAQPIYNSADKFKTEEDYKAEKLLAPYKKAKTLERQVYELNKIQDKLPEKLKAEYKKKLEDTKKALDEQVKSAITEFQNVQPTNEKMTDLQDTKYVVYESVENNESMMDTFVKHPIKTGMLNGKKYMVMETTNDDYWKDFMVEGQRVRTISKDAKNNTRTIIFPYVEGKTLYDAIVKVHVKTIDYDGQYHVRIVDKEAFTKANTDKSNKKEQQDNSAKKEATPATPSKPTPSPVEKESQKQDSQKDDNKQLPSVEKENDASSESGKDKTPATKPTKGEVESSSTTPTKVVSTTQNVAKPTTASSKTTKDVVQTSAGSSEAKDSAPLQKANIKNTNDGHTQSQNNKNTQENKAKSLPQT
T3 sequence (A6QG30 42-613, tags left off): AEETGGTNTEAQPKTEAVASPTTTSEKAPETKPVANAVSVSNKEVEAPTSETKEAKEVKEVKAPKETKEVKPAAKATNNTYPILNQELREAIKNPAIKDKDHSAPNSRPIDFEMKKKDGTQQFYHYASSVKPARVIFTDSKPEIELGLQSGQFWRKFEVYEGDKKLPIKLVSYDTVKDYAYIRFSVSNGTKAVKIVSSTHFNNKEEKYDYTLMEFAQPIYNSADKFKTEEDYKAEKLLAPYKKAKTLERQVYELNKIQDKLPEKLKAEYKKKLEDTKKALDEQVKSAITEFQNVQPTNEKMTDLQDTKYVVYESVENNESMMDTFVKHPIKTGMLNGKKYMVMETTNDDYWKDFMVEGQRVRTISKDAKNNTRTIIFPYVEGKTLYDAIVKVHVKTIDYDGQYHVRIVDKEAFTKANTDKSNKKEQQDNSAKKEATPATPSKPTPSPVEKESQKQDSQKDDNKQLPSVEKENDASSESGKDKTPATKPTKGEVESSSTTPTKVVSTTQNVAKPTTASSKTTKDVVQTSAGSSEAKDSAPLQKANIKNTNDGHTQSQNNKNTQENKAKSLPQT
T1 sequence (P02745 23-245 limits assumed, chain 1 of 3): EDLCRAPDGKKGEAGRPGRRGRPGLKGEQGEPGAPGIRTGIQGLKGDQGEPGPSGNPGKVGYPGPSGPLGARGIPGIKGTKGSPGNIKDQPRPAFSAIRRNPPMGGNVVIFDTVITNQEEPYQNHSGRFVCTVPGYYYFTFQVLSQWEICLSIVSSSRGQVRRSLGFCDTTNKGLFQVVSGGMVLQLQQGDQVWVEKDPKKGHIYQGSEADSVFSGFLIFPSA
T1 sequence (P02746 28-253 limits assumed, chain 2 of 3): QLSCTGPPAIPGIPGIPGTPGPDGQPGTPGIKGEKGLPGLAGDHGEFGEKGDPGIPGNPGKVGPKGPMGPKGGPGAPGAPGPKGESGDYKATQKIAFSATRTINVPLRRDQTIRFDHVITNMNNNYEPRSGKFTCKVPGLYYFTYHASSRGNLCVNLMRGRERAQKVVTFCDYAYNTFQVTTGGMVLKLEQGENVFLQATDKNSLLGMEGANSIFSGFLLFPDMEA
T1 sequence (P02747 29-245 limits assumed, chain 3 of 3): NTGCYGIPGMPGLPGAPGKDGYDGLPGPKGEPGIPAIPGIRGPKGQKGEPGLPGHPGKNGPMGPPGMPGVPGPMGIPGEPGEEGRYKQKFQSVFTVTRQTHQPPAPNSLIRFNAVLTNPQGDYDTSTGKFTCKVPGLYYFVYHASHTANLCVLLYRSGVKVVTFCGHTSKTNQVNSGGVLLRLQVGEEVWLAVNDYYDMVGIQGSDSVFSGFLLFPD

| Binder | C1q deposition on S. aureus Cowan I EC50 [2] | EC50 [3] | Kd [4] | koff [4] | kon [4] | t½ [4] | Kd [5] | koff [5] | kon [5] | t1/2 [5] | Kd [6] | koff [6] | kon [6] | t½ [6] | Kd [7] | koff [7] | kon [7] | t1/2 [7] | % Blockade with 600 nM bispecific Ab [8] | % Blockade with 600 nM bispecific Ab [9] | other results |
| --- | --- | --- | --- | --- | --- | --- | --- | --- | --- | --- | --- | --- | --- | --- | --- | --- | --- | --- | --- | --- | --- |
| B1 | 8.54 nM | 9.52 nM | 2.12 nM | 0.0102 s⁻¹ | 4.81e+06 M⁻¹ s⁻¹ | 1.14 min | 2.73 nM | 0.0179 s⁻¹ | 6.57e+06 M⁻¹ s⁻¹ | 0.64 min | 4.98 nM | 0.000378 s⁻¹ | 75800 M⁻¹ s⁻¹ | 30.6 min | 17.4 nM | 0.00144 s⁻¹ | 82800 M⁻¹ s⁻¹ | 8.04 min | 11% | 20% | Classical Pathway hemolysis assay % inhibition [1]: 0%; % Blockade with 30 nM bispecific Ab [10]: -29%; % Blockade with 30 nM bispecific Ab [11]: -11% |
| B2 | 0.298 nM | 11.9 nM | 0.158 nM | 0.00452 s⁻¹ | 2.86e+07 M⁻¹ s⁻¹ | 2.56 min | 0.88 nM | 0.0317 s⁻¹ | 3.6e+07 M⁻¹ s⁻¹ | 0.36 min | 9.95 nM | 0.000551 s⁻¹ | 55400 M⁻¹ s⁻¹ | 21 min | 19.1 nM | 0.00155 s⁻¹ | 81200 M⁻¹ s⁻¹ | 7.43 min | 95% | 87% | inhibition of CDC of Daudi cells, IC50 [M] [12]: 3.4e-08 M; inhibition of CDC of Daudi cells, Max % Inhibition [12]: ≥ 99%; IC50 [8]: 13 nM; IC50 [9]: 18 nM; % Blockade with 30 nM bispecific Ab [10]: 94%; IC50 [10]: 0.84 nM; % Blockade with 30 nM bispecific Ab [11]: 87%; IC50 [11]: 5.3 nM |
| B3 | 1.29 nM | 10.3 nM | 0.154 nM | 0.00068 s⁻¹ | 4.38e+06 M⁻¹ s⁻¹ | 17.1 min | 0.18 nM | 0.00027 s⁻¹ | 1.5e+06 M⁻¹ s⁻¹ | 42.9 min | 6.02 nM | 0.000438 s⁻¹ | 72800 M⁻¹ s⁻¹ | 26.4 min | 14.7 nM | 0.00141 s⁻¹ | 95900 M⁻¹ s⁻¹ | 8.19 min | 14% | 19% | Classical Pathway hemolysis assay % inhibition [1]: 0%; inhibition of CDC of Daudi cells, IC50 [M] [12]: > 1e-06 M; inhibition of CDC of Daudi cells, Max % Inhibition [12]: 33%; % Blockade with 30 nM bispecific Ab [10]: -17%; % Blockade with 30 nM bispecific Ab [11]: -13% |
| B4 | 5 nM | 11.3 nM | 1.54 nM | 0.0124 s⁻¹ | 8.01e+06 M⁻¹ s⁻¹ | 0.93 min | 2.33 nM | 0.0407 s⁻¹ | 1.75e+07 M⁻¹ s⁻¹ | 0.28 min | 9.34 nM | 0.000468 s⁻¹ | 50100 M⁻¹ s⁻¹ | 24.7 min | 17.4 nM | 0.00149 s⁻¹ | 85100 M⁻¹ s⁻¹ | 7.78 min | 88% | 70% | Classical Pathway hemolysis assay % inhibition [1]: 50%; inhibition of CDC of Daudi cells, IC50 [M] [12]: > 1e-07 M; inhibition of CDC of Daudi cells, Max % Inhibition [12]: 67%; IC50 [8]: 71 nM; IC50 [9]: 100 nM; % Blockade with 30 nM bispecific Ab [10]: -3%; % Blockade with 30 nM bispecific Ab [11]: -2% |
| B5 | 2.55 nM | 10.4 nM | 1.28 nM | 0.00511 s⁻¹ | 4.01e+06 M⁻¹ s⁻¹ | 2.26 min | 1.98 nM | 0.011 s⁻¹ | 5.53e+06 M⁻¹ s⁻¹ | 1.05 min | 10.8 nM | 0.000498 s⁻¹ | 46200 M⁻¹ s⁻¹ | 23.2 min | 17.8 nM | 0.00144 s⁻¹ | 80900 M⁻¹ s⁻¹ | 8.03 min | 28% | 33% | Classical Pathway hemolysis assay % inhibition [1]: 24%; inhibition of CDC of Daudi cells, IC50 [M] [12]: 1e-07 M; inhibition of CDC of Daudi cells, Max % Inhibition [12]: ≥ 99%; % Blockade with 30 nM bispecific Ab [10]: -30%; % Blockade with 30 nM bispecific Ab [11]: -25% |
